Reference: PMC5812989, “Evaluation of HER2-specific peptide ligand for its employment as radiolabeled imaging probe” (Scientific Reports, 2018)
Where a SMILES comes first, the peptide text is derived from it. Where no end group is shown, it is not given here. The star is where a group is joined. DTPA = O=C(O)CN(CCN(CC(=O)O)CC(=O)O)CCN(CC(=O)O)CC(=O)*

Legend:
[1] = design: species or system BALB/c nu/nu mice; details: mouse, in vivo
Procedure: Four BALB/C nu/nu mice were used for the biodistribution studies. At the time of experiment, the average animal weight was 20.5 ± 0.9 g. Animals were injected intravenously (tail vein) with 3 µg (30 kBq) of ^111In-DTPA-A9 in 100 µL PBS. Since DTPA-A9 peptide resulted stable to serum proteolytic degradation in a range of 90 minutes (for details see Supplementary Information Fig. S6), at 1 hour after injection, a mixture of Ketalar-Rompun (20 µL of solution per gram body weight; Ketalar: 10 mg/mL; Rompun: 1 mg/mL) was injected intraperitonealy, and the mice were euthanized by a heart puncture using a syringe, pre-washed with diluted heparin (5000 IE/mL). Blood as well as brain, stomach, pancreas, lung, liver, spleen, kidneys, samples of muscle and bone, gastrointestinal tract (with its content) and remaining carcass were collected in pre-weighed plastic vials. Organs and tissue samples were weighed and measured for radioactivity using an automatic gamma counter. The tissue uptake values were calculated as per cent injected activity per gram of tissue (% ID/g) and per whole sample (% ID/sample). The gastrointestinal tract and the carcass uptakes were calculated only as % ID per whole sample. The radioactivity in the gastrointestinal tract with its content was used as a measure of hepatobiliary excretion.

[2] = test system: HER2-expressing BT474 cells; experiment: LigandTracer / InteractionMap kinetics of binding to living HER2-expressing cells; design: species or system human; details: 1:2 interaction model, room temperature, 4, 12 and 36 nM, read-out: affinity, weaker binding site (low affinity interaction)
Procedure: For cell studies, the HER2-expressing breast carcinoma cell line BT474 (from ATCC) was used. The cell line was cultured in RPMI medium (Flow Irvine, UK) supplemented with 10% fetal calf serum (Sigma, USA), 2 mM L-glutamine and PEST (penicillin 100 IU/mL and 100 μg/mL streptomycin), all from Biokrom Kg, Germany.
Cells from the human breast carcinoma cell line BT474 were seeded on a local area of a cell culture dish (NunclonTM, Size 100620, NUNC A/S, Roskilde, Denmark), as described by Björke and Andersson[63]. The binding of ^111In-DTPA-A9 to living cells was monitored in real-time at room temperature using LigandTracer Yellow, using method established by Björke and Andersson[63]. In brief, the cell culture dish was placed on the sloping and rotating cell dish holder in LigandTracer Yellow, followed by a continuous monitoring of the radioactivity level along the rim of the dish. If the labelled peptide binds to the cells, an elevated signal will be recorded when the cells pass by the detector. […] Binding and dissociation curves were analyzed by InteractionMap software as described by Björkelund et al. to calculate affinity of ^111In-DTPA-A9 binding to living HER2-expressing cells.
Additionally, specificity of ^111In-DTPA-A9 binding to HER2 expressing cells was evaluated using pre-saturation of receptors by trastuzumab and by using ^111In-labeled scrambled DTPA-A9 (^111In- DTPA-S-A9). […]

[3] = In vitro peptide stability in serum (HPLC); format: in vitro ADME; details: during one hour; 0.5 mg/mL, RPMI with 10% FBS, 37 °C
Procedure: Figure S4: In vitro Peptide Stability in Serum. A9 modified peptides at concentration of 0.5 mg/mL were dissolved in RPMI containing 10% of FBS (fetal bovine serum) and incubated at 37 °C. Samples (50 μL) were taken regularly (t = 0, 0.5, 1, 2, 3, 6, and 24 h) and mixed with 100 μL of CH3CH2OH (96%), for precipitation of serum proteins. The cloudy reaction sample is cooled (4 °C) for 15 min and then spin at 16,000 rpm for 2 min, to pellet the precipitated serum proteins^1. The chromatographic analysis of samples (30 μL injected for each injection) were performed on an Alliance HT WATERS 2795 system, equipped with a PDA WATERS detector 2996 using a […] C18 Waters xBridge (3 μm, 4.6 x 50 mm) column, with a linear gradient from 5% to 70% of 0.05% TFA in CH3CN (Solvent B) over 20 min at a flow rate of 0.2 mL/min. […] Results are mean of three independent experiments performed in duplicate.

For `CC(C)[C@H](NC(=O)[C@H](C)NC(=O)[C@@H](NC(=O)[C@H](CC(N)=O)NC(=O)[C@@H](NC(=O)[C@H](CC(=O)O)NC(=O)[C@H](CCC(N)=O)NC(=O)CN(CCN(CCN(CC(=O)O)CC(=O)O)CC(=O)O)CC(=O)O)C(C)C)[C@@H](C)O)C(=O)N[C@@H](C)C(=O)N[C@@H](Cc1c[nH]c2ccccc12)C(N)=O` [^111In-DTPA-A9, metal not drawn] ({DTPA}-QDVNTAVAW-NH2), the “radioactivity in the gastrointestinal tract with content” value [1] was “approximately 1 % of injected activity”, the “uptake, blood” value ([1]; iv, 1 h) was 0.24 ± 0.04 % ID/g and the “uptake, bone” value ([1]; iv, 1 h) was 0.16 ± 0.13 % ID/g. For the same compound, the “uptake, brain” value ([1]; iv, 1 h) was 0.03 ± 0.03 % ID/g, the “uptake, liver” value ([1]; iv, 1 h) was 0.44 ± 0.04 % ID/g and the “uptake, lung” value ([1]; iv, 1 h) was 0.5 ± 0.3 % ID/g. For the same compound, the “uptake, muscle” value ([1]; iv, 1 h) was 0.01 ± 0.01 % ID/g, the “uptake, pancreas” value ([1]; iv, 1 h) was 0.13 ± 0.03 % ID/g and the “uptake, spleen” value ([1]; iv, 1 h) was 0.22 ± 0.01 % ID/g. For the same compound, the “uptake, stomach” value ([1]; iv, 1 h) was 0.27 ± 0.07 % ID/g.
In the case of “^111In-DTPA-SA9: 111In-labeled scrambled conjugate, same amino acids as A9 but in a different order ({DTPA}-WAVQNTDAV-NH2; also: DTPA complexed with 111In)”, the Kd [2] is reported as 103 nM.
In the case of QDVNTAVAW-NH2 [A9], the “stability on incubation in vitro with blood serum” value [3] is reported as “high stability”.
